Values of other authors as cited in patent US20050019270A1, “Formulation of powder containing nanoparticles for aerosol delivery to the lungs” (priority 2003, published 2005).

Conditions: spray drying with polysorbate 20 added

Question: Which surface aggregation does the source give for “recombinant human growth hormone: Protein in a prior spray drying study with polysorbate 20” here?
Answer: < 2%
